Laboratory results taken from US20250043302A1, “MUTATED HYDROXYPHENYLPYRUVATE DIOXYGENASE POLYPEPTIDE, AND CODING GENE AND USE THEREOF” (BEIJING DABEINONG BIOTECHNOLOGY CO., LTD., priority 2021, published 2025).

How the values were obtained:
Assay type in all cases: in vivo
[1] = tested on: Arabidopsis thaliana T1 plants; test: Topramezone tolerance of transgenic Arabidopsis thaliana T1 plants (spray, bleached leaf area grade, damage score); conditions: Table 10; for Classification and statistics of the grade of pesticide damage Grade 0: number of plants at grade 0; for Classification and statistics of the grade of pesticide damage Grade 1: number of plants at grade 1; for Classification and statistics of the grade of pesticide damage Grade 2: number of plants at grade 2; for Classification and statistics of the grade of pesticide damage Grade 3: number of plants at grade 3; for Scores: pesticide damage score
Method in brief: (§1)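 Damage was assessed by bleaching grade (0 none; 1 <50%; 2 >50%; 3 100% of leaf area) one week after spraying. Sprays on 18-day-old T1 and wild-type plants used field-rate multiples: topramezone 25–200, isoxaflutole 35–280, mesotrione 52.5–420 g ai/ha.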

[2] = tested on: Arabidopsis thaliana T1 plants; test: Isoxaflutole tolerance of transgenic Arabidopsis thaliana T1 plants (spray, bleached leaf area grade, damage score); conditions: Table 11; for Classification and statistics of the grade of pesticide damage Grade 0: number of plants at grade 0; for Classification and statistics of the grade of pesticide damage Grade 1: number of plants at grade 1; for Classification and statistics of the grade of pesticide damage Grade 2: number of plants at grade 2; for Classification and statistics of the grade of pesticide damage Grade 3: number of plants at grade 3; for Scores: pesticide damage score;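 for Scores: Weighted damage index from 0 to 100 where higher means more damage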
Method in brief: as §1

[3] = tested on: Arabidopsis thaliana T1 plants; test: Mesotrione tolerance of transgenic Arabidopsis thaliana T1 plants (spray, bleached leaf area grade, damage score); set-up: Scores: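 damage score 0-100 computed as Σ(N×S)/(T×M)×100 over grades 0-3 with higher meaning more damage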; conditions: Table 12; for Classification and statistics of the grade of pesticide damage Grade 0: number of plants at grade 0; for Classification and statistics of the grade of pesticide damage Grade 1: number of plants at grade 1; for Classification and statistics of the grade of pesticide damage Grade 2: number of plants at grade 2; for Classification and statistics of the grade of pesticide damage Grade 3: number of plants at grade 3; for Scores: pesticide damage score
Method in brief: as §1

B1: HPPDm-9-02: nucleotide sequence encoding AsHPPDm-A106G-K351N-F372A-F383W with mutated C-terminal; vector DBN11790 (nucleic acid)
DNA: ATGCCACCTACTCCAGCTACAGCTACTGGTGCTGCTGCTGCTGCCGTTACTCCTGAGCACGCTGCCAGGTCATTCCCCAGGGTGGTTCGCGTGAACCCCAGATCTGATAGGTTCCCAGTTCTGAGCTTCCACCATGTTGAGCTGTGGTGCGCTGATGCTGCTTCTGCTGCTGGCAGGTTCTCTTTCGCTCTTGGTGCTCCACTCGCTGCTAGATCTGATCTGTCTACAGGAAATAGCGCTCATGCCTCACTCCTGCTTCGCTCAGGTGCTTTGGCCTTCCTCTTCACCGCTCCATATGCTCCCCCACCTCAGGAGGGTGCTACTGCTGCTGCTACAGCCTCCATTCCAAGCTTCTCAGCTGATGCCGCTAGAACCTTCGCTGCTGCTCATGGACTTGCCGTGAGGTCTGTTGGTGTTCGCGTGGCTGATGCTGCTGAGGCTTTCAGAGTTTCCGTTGCCGGCGGAGCTAGGCCAGCTTTCGCTCCTGCTGATTTGGGACATGGTTTCGGCCTGGCTGAGGTTGAGCTTTACGGTGACGTGGTTCTCCGCTTCGTGTCTTACCCAGATGAGACTGACCTGCCTTTCCTTCCCGGCTTCGAGAGAGTTTCCTCTCCTGGTGCCGTGGATTACGGCCTGACAAGGTTCGACCACGTGGTTGGAAACGTTCCCGAGATGGCTCCAGTGATCGATTACATGAAGGGCTTCCTTGGATTCCATGAGTTCGCCGAGTTCACTGCTGAGGACGTGGGAACCACTGAGTCCGGTTTGAACTCTGTGGTTCTCGCCAACAATTCTGAGGCTGTTTTGCTCCCTCTGAATGAGCCTGTGCATGGAACCAAGAGGAGAAGCCAGATTCAAACTTACCTGGAGTACCACGGTGGCCCTGGAGTTCAGCATATCGCCCTTGCTTCTAATGATGTGTTGCGCACACTCAGAGAGATGCGCGCCAGAACCCCCATGGGAGGTTTCGAGTTCATGGCCCCACCACAGGCTAAGTACTACGAGGGCGTTAGAAGGATTGCTGGAGACGTGTTGAGCGAGGAGCAGATCAATGAGTGCCAAGAGCTGGGTGTTCTTGTGGATAGGGATGACCAGGGCGTTCTGCTTCAAATTGCCACTAAGCCAGTGGGCGACCGCCCTACATTCTGGCTTGAGATGATTCAAAGAATCGGCTGCATGGAGAAGGATGAGGTTGGACAGGAGTACCAAAAGGGCGGATGCGGTGGCTTCGGAAAGGGTAACTTCAGCGAGTTGTTCAAGTCAATCGAGGAGTATGAGAAGACCTTGGAGGCCAAGCAGCTCGTGGGTTGA
modifications: mutated C-terminus; HPPDm-9-02 Nucleotide Sequence
notes: vector DBN11790
[1]; topramezone 100 g ai/ha (4×)
  Resistance evaluation: Highly resistant
  Classification and statistics of the grade of pesticide damage Grade 0: 16
  Classification and statistics of the grade of pesticide damage Grade 1: 0
  Classification and statistics of the grade of pesticide damage Grade 2: 0
  Classification and statistics of the grade of pesticide damage Grade 3: 0
  Scores: 0
[1]; topramezone 200 g ai/ha (8×)
  Resistance evaluation: Highly resistant
  Classification and statistics of the grade of pesticide damage Grade 0: 16
  Classification and statistics of the grade of pesticide damage Grade 1: 0
  Classification and statistics of the grade of pesticide damage Grade 2: 0
  Classification and statistics of the grade of pesticide damage Grade 3: 0
  Scores: 0
[2]; isoxaflutole 140 g ai/ha (2×)
  Resistance evaluation: Highly resistant
  Classification and statistics of the grade of pesticide damage Grade 0: 16
  Classification and statistics of the grade of pesticide damage Grade 1: 0
  Classification and statistics of the grade of pesticide damage Grade 2: 0
  Classification and statistics of the grade of pesticide damage Grade 3: 0
  Scores: 0
[2]; isoxaflutole 280 g ai/ha (4×)
  Resistance evaluation: Highly resistant
  Classification and statistics of the grade of pesticide damage Grade 0: 16
  Classification and statistics of the grade of pesticide damage Grade 1: 0
  Classification and statistics of the grade of pesticide damage Grade 2: 0
  Classification and statistics of the grade of pesticide damage Grade 3: 0
  Scores: 0
[3]; mesotrione 210 g ai/ha (2×)
  Resistance evaluation: Highly resistant
  Classification and statistics of the grade of pesticide damage Grade 0: 16
  Classification and statistics of the grade of pesticide damage Grade 1: 0
  Classification and statistics of the grade of pesticide damage Grade 2: 0
  Classification and statistics of the grade of pesticide damage Grade 3: 0
  Scores: 0
[3]; mesotrione 420 g ai/ha (4×)
  Resistance evaluation: Highly resistant
  Classification and statistics of the grade of pesticide damage Grade 0: 16
  Classification and statistics of the grade of pesticide damage Grade 1: 0
  Classification and statistics of the grade of pesticide damage Grade 2: 0
  Classification and statistics of the grade of pesticide damage Grade 3: 0
  Scores: 0
